Laboratory results as given in publication PMC12357932 (Nature Communications, 2025).

B1: C-terminal domain of F-BclA (F-BclA-CTD; BTK_RS34675 residues 721-863) (domain or fragment)
chain: MHHHHHHSVGLTNYLYVFDTTNQSIAVGSSVTFNTNGPITGTALSHITGTGNIIINTLGTYVAEFQLQASRENQFSLELNGTPIPGGRFGTGSPHSINQGTAAFTVTVVPSTLTLINNTSSAGTITLSNSDGGSLTNVSASISIFQVG

How the values were obtained:
[1] = biological target: ExsF with the first 23 residues replaced by an N-terminal 6xHis tag (B. paranthracis); assay: crystal structure
[2] = biological target: the molecule itself; assay: crystal structure

Molecule	stoichiometry N [1]	stoichiometry N [2]
ExsF with the first 23 residues replaced by an N-terminal 6xHis tag (domain or fragment)	3	
B1		3
